Reference: publication PMC7367873, “Dissecting the sequence determinants for dephosphorylation by the catalytic subunits of phosphatases PP1 and PP2A” (Nature Communications, 2020)

Key:
[1] = system: GFP-14-3-3β and its binding proteins; assay: GFP-14-3-3β co-IP with LC-MS/MS label-free quantification, untreated versus PP1c-treated; set-up: species or system human; details: pairwise comparison PP1 vs untreated, 3 replicates each
[2] = system: GFP-14-3-3β; assay: GFP-14-3-3β co-IP with LC-MS/MS, untreated GFP-14-3-3β versus GFP control (14-3-3 interactome); type: binding, human; details: 3 replicates each
[3] = log2 difference, label-free quantification
[4] = log2 difference, pairwise comparison untreated vs GFP, label-free quantification
[5] = student's t-test, LC-MS/MS label-free quantification
[6] = pairwise comparison untreated GFP-14-3-3β vs GFP, student's t-test, LC-MS/MS label-free quantification

Difference (log2), PP1 vs untreated [1, 3] | Difference (log2), PP1 vs untreated [1, 5] [log2] | Molecule | Difference (log2), untreated vs GFP [2, 4] | Difference (log2), untreated vs GFP [2, 6] [log2]
1.519 | – | PA2G4 (protein, UniProt Q9UQ80 2-394, looked up) Proliferation-associated …: SGEDEQQEQTIAEDLVVTKYKMGGDIANRVLRSLVEASSSGVSVLSLCEKGDAMIMEETGKIFKKEKEMKKGIAFPTSISVNNCVCHFSPLKSDQDYILKEGDLVKIDLGVHVDGFIANVAHTFVVDVAQGTQVTGRKADVIKAAHLCAEAALRLVKPGNQNTQVTEAWNKVAHSFNCTPIEGMLSHQLKQHVIDGEKTIIQNPTDQQKKDHEKAEFEVHEVYAVDVLVSSGEGKAKDAGQRTTIYKRDPSKQYGLKMKTSRAFFSEVERRFDAMPFTLRAFEDEKKARMGVVECAKHELLQPFNVLYEKEGEFVAQFKFTVLLMPNGPMRITSGPFEPDLYKSEMEVQDAELKALLQSSASRKTQKKKKKKASKTAENATSGETLEENEAGD | 0.3875 | –
1.521 | – | TRAM1 (protein, UniProt Q15629 1-374, looked up) Translocating …: MAIRKKSTKSPPVLSHEFVLQNHADIVSCVAMVFLLGLMFEITAKASIIFVTLQYNVTLPATEEQATESVSLYYYGIKDLATVFFYMLVAIIIHAVIQEYMLDKINRRMHFSKTKHSKFNESGQLSAFYLFACVWGTFILISENYISDPTILWRAYPHNLMTFQMKFFYISQLAYWLHAFPELYFQKTKKEDIPRQLVYIGLYLFHIAGAYLLNLNHLGLVLLVLHYFVEFLFHISRLFYFSNEKYQKGFSLWAVLFVLGRLLTLILSVLTVGFGLARAENQKLDFSTGNFNVLAVRIAVLASICVTQAFMMWKFINFQLRRWREHSAFQAPAVKKKPTVTKGRSSKKGTENGVNGTLTSNVADSPRNKKEKSS | 0.1201 | –
– | -4.246 | GLCCI1 (protein, UniProt Q86VQ1 1-547, looked up) Glucocorticoid-induced …: MSTASSSSSSSSSQTPHPPSQRMRRSAAGSPPAVAAAGSGNGAGGGGGVGCAPAAGAGRLLQPIRATVPYQLLRGSQHSPTRPPVAAAAASLGSLPGPGAARGPSPSSPTPPAAAAPAEQAPRAKGRPRRSPESHRRSSSPERRSPGSPVCRADKAKSQQVRTSSTIRRTSSLDTITGPYLTGQWPRDPHVHYPSCMKDKATQTPSCWAEEGAEKRSHQRSASWGSADQLKEQIAKLRQQLQRSKQSSRHSKEKDRQSPLHGNHITISHTQATGSRSVPMPLSNISVPKSSVSRVPCNVEGISPELEKVFIKENNGKEEVSKPLDIPDGRRAPLPAHYRSSSTRSIDTQTPSVQERSSSCSSHSPCVSPFCPPESQDGSPCSTEDLLYDRDKDSGSSSPLPKYASSPKPNNSYMFKREPPEGCERVKVFEEMASRQPISAPLFSCPDKNKVNFIPTGSAFCPVKLLGPLLPASDLMLKNSPNSGQSSALATLTVEQLSSRVSFTSLSDDTSTAGSMEASVQQPSQQQQLLQELQGEDHISAQNYVII | – | 4.69
– | -4.365 | PAK4 (protein, UniProt O96013 1-591, looked up) Serine/threonine-protein …: MFGKRKKRVEISAPSNFEHRVHTGFDQHEQKFTGLPRQWQSLIEESARRPKPLVDPACITSIQPGAPKTIVRGSKGAKDGALTLLLDEFENMSVTRSNSLRRDSPPPPARARQENGMPEEPATTARGGPGKAGSRGRFAGHSEAGGGSGDRRRAGPEKRPKSSREGSGGPQESSRDKRPLSGPDVGTPQPAGLASGAKLAAGRPFNTYPRADTDHPSRGAQGEPHDVAPNGPSAGGLAIPQSSSSSSRPPTRARGAPSPGVLGPHASEPQLAPPACTPAAPAVPGPPGPRSPQREPQRVSHEQFRAALQLVVDPGDPRSYLDNFIKIGEGSTGIVCIATVRSSGKLVAVKKMDLRKQQRRELLFNEVVIMRDYQHENVVEMYNSYLVGDELWVVMEFLEGGALTDIVTHTRMNEEQIAAVCLAVLQALSVLHAQGVIHRDIKSDSILLTHDGRVKLSDFGFCAQVSKEVPRRKSLVGTPYWMAPELISRLPYGPEVDIWSLGIMVIEMVDGEPPYFNEPPLKAMKMIRDNLPPRLKNLHKVSPSLKGFLDRLLVRDPAQRATAAELLKHPFLAKAGPPASIVPLMRQNRTR | – | 5.767
– | -4.306 | EIF4E2 (protein, UniProt O60573 1-245, looked up) Eukaryotic translation …: MNNKFDALKDDDSGDHDQNEENSTQKDGEKEKTERDKNQSSSKRKAVVPGPAEHPLQYNYTFWYSRRTPGRPTSSQSYEQNIKQIGTFASVEQFWRFYSHMVRPGDLTGHSDFHLFKEGIKPMWEDDANKNGGKWIIRLRKGLASRCWENLILAMLGEQFMVGEEICGAVVSVRFQEDIISIWNKTASDQATTARIRDTLRRVLNLPPNTIMEYKTHTDSIKMPGRLGPQRLLFQNLWKPRLNVP | – | 3.4457
– | -4.214 | RAE1 (protein, UniProt P78406 1-368, looked up) mRNA export factor RAE1: MSLFGTTSGFGTSGTSMFGSATTDNHNPMKDIEVTSSPDDSIGCLSFSPPTLPGNFLIAGSWANDVRCWEVQDSGQTIPKAQQMHTGPVLDVCWSDDGSKVFTASCDKTAKMWDLSSNQAIQIAQHDAPVKTIHWIKAPNYSCVMTGSWDKTLKFWDTRSSNPMMVLQLPERCYCADVIYPMAVVATAERGLIVYQLENQPSEFRRIESPLKHQHRCVAIFKDKQNKPTGFALGSIEGRVAIHYINPPNPAKDNFTFKCHRSNGTNTSAPQDIYAVNGIAFHPVHGTLATVGSDGRFSFWDKDARTKLKTSEQLDQPISACCFNHNGNIFAYASSYDWSKGHEFYNPQKKNYIFLRNAAEELKPRNKK | – | 3.4084
– | -4.512 | HOMER3 (protein, UniProt Q9NSC5 1-361, looked up) Homer protein homolog 3: MSTAREQPIFSTRAHVFQIDPATKRNWIPAGKHALTVSYFYDATRNVYRIISIGGAKAIINSTVTPNMTFTKTSQKFGQWADSRANTVYGLGFASEQHLTQFAEKFQEVKEAARLAREKSQDGGELTSPALGLASHQVPPSPLVSANGPGEEKLFRSQSADAPGPTERERLKKMLSEGSVGEVQWEAEFFALQDSNNKLAGALREANAAAAQWRQQLEAQRAEAERLRQRVAELEAQAASEVTPTGEKEGLGQGQSLEQLEALVQTKDQEIQTLKSQTGGPREALEAAEREETQQKVQDLETRNAELEHQLRAMERSLEEARAERERARAEVGRAAQLLDVSLFELSELREGLARLAEAAP | – | 5.445
– | -4.417 | GIT1 (protein, UniProt Q9Y2X7 1-761, looked up) ARF GTPase-activating protein …: MSRKGPRAEVCADCSAPDPGWASISRGVLVCDECCSVHRSLGRHISIVKHLRHSAWPPTLLQMVHTLASNGANSIWEHSLLDPAQVQSGRRKANPQDKVHPIKSEFIRAKYQMLAFVHKLPCRDDDGVTAKDLSKQLHSSVRTGNLETCLRLLSLGAQANFFHPEKGTTPLHVAAKAGQTLQAELLVVYGADPGSPDVNGRTPIDYARQAGHHELAERLVECQYELTDRLAFYLCGRKPDHKNGHYIIPQMADSLDLSELAKAAKKKLQALSNRLFEELAMDVYDEVDRRENDAVWLATQNHSTLVTERSAVPFLPVNPEYSATRNQGRQKLARFNAREFATLIIDILSEAKRRQQGKSLSSPTDNLELSLRSQSDLDDQHDYDSVASDEDTDQEPLRSTGATRSNRARSMDSSDLSDGAVTLQEYLELKKALATSEAKVQQLMKVNSSLSDELRRLQREIHKLQAENLQLRQPPGPVPTPPLPSERAEHTPMAPGGSTHRRDRQAFSMYEPGSALKPFGGPPGDELTTRLQPFHSTELEDDAIYSVHVPAGLYRIRKGVSASAVPFTPSSPLLSCSQEGSRHTSKLSRHGSGADSDYENTQSGDPLLGLEGKRFLELGKEEDFHPELESLDGDLDPGLPSTEDVILKTEQVTKNIQELLRAAQEFKHDSFVPCSEKIHLAVTEMASLFPKRPALEPVRSSLRLLNASAYRLQSECRKTVPPEPGAPVDFQLLTQQVIQCAYDIAKAAKQLVTITTREKKQ | – | 5.06
– | -4.243 | EDC3 (protein, UniProt Q96F86 1-508, looked up) Enhancer of mRNA-decapping …: MATDWLGSIVSINCGDSLGVYQGRVSAVDQVSQTISLTRPFHNGVKCLVPEVTFRAGDITELKILEIPGPGDNQHFGDLHQTELGPSGAGCQVGINQNGTGKFVKKPASSSSAPQNIPKRTDVKSQDVAVSPQQQQCSKSYVDRHMESLSQSKSFRRRHNSWSSSSRHPNQATPKKSGLKNGQMKNKDDECFGDDIEEIPDTDFDFEGNLALFDKAAVFEEIDTYERRSGTRSRGIPNERPTRYRHDENILESEPIVYRRIIVPHNVSKEFCTDSGLVVPSISYELHKKLLSVAEKHGLTLERRLEMTGVCASQMALTLLGGPNRLNPKNVHQRPTVALLCGPHVKGAQGISCGRHLANHDVQVILFLPNFVKMLESITNELSLFSKTQGQQVSSLKDLPTSPVDLVINCLDCPENVFLRDQPWYKAAVAWANQNRAPVLSIDPPVHEVEQGIDAKWSLALGLPLPLGEHAGRIYLCDIGIPQQVFQEVGINYHSPFGCKFVIPLHSA | – | 4.9273
– | -3.991 | USP8 (protein, UniProt P40818 1-1118, looked up) Ubiquitin carboxyl-terminal …: MPAVASVPKELYLSSSLKDLNKKTEVKPEKISTKSYVHSALKIFKTAEECRLDRDEERAYVLYMKYVTVYNLIKKRPDFKQQQDYFHSILGPGNIKKAVEEAERLSESLKLRYEEAEVRKKLEEKDRQEEAQRLQQKRQETGREDGGTLAKGSLENVLDSKDKTQKSNGEKNEKCETKEKGAITAKELYTMMTDKNISLIIMDARRMQDYQDSCILHSLSVPEEAISPGVTASWIEAHLPDDSKDTWKKRGNVEYVVLLDWFSSAKDLQIGTTLRSLKDALFKWESKTVLRNEPLVLEGGYENWLLCYPQYTTNAKVTPPPRRQNEEVSISLDFTYPSLEESIPSKPAAQTPPASIEVDENIELISGQNERMGPLNISTPVEPVAASKSDVSPIIQPVPSIKNVPQIDRTKKPAVKLPEEHRIKSESTNHEQQSPQSGKVIPDRSTKPVVFSPTLMLTDEEKARIHAETALLMEKNKQEKELRERQQEEQKEKLRKEEQEQKAKKKQEAEENEITEKQQKAKEEMEKKESEQAKKEDKETSAKRGKEITGVKRQSKSEHETSDAKKSVEDRGKRCPTPEIQKKSTGDVPHTSVTGDSGSGKPFKIKGQPESGILRTGTFREDTDDTERNKAQREPLTRARSEEMGRIVPGLPSGWAKFLDPITGTFRYYHSPTNTVHMYPPEMAPSSAPPSTPPTHKAKPQIPAERDREPSKLKRSYSSPDITQAIQEEEKRKPTVTPTVNRENKPTCYPKAEISRLSASQIRNLNPVFGGSGPALTGLRNLGNTCYMNSILQCLCNAPHLADYFNRNCYQDDINRSNLLGHKGEVAEEFGIIMKALWTGQYRYISPKDFKITIGKINDQFAGYSQQDSQELLLFLMDGLHEDLNKADNRKRYKEENNDHLDDFKAAEHAWQKHKQLNESIIVALFQGQFKSTVQCLTCHKKSRTFEAFMYLSLPLASTSKCTLQDCLRLFSKEEKLTDNNRFYCSHCRARRDSLKKIEIWKLPPVLLVHLKRFSYDGRWKQKLQTSVDFPLENLDLSQYVIGPKNNLKKYNLFSVSNHYGGLDGGHYTAYCKNAARQRWFKFDDHEVSDISVSSVKSSAAYILFYTSLGPRVTDVAT | – | 6.726
